Experiments:
human CTLA4-Ig [1] = molecular target: T1, human CTLA4-Ig (human, UniProt P16410 38-161); test: calculated; method and form of CTLA4 not stated (Example 8, competition assays); murine antibody
T1 construct: also called rhCTLA4IgG1Fc; not shown: immunoglobulin Fc part of the fusion; named IgG1Fc in rhCTLA4IgG1Fc and detected with anti-human Fc

E46 [2] = molecular target: T2, E46; test: sandwich ELISA: antibody coated at 10 ug/ml, CHO supernatant with CTLA4-Ig mutant, AP-goat anti-human Fc
T2 construct: one of 11 alanine mutants made by site-directed mutagenesis, used as CHO supernatant; also called CTLA4 point mutant E46; CTLA4-Ig E46A; not shown: human Ig Fc portion (with hinge or linker) of the CTLA4-Ig fusion

human CTLA4-Ig [3] = molecular target: T1, human CTLA4-Ig; test: ELISA on plate-coated human CTLA4-Ig (10 ug/ml); serial dilutions of antibody, AP-goat anti-mouse, ABTS, OD 405 nm
Procedure: ELISA plates were incubated with 10 ug/ml human CTLA4-Ig overnight. Plates were washed with PBS/1% BSA and incubated with serial dilutions of primary antibody for 2 hrs at room temperature (RT). After washing, saturating concentrations of AP-conjugated goat anti-mouse antibody were added, and incubated for 1 hr at RT. Unbound goat antibodies were washed using PBS/1% BSA. The assay was developed using ABTS.

human CTLA4-Ig [4] = molecular target: T1, human CTLA4-Ig; test: inhibition ELISA on plate-coated human CTLA4-Ig (10 ug/ml); antibody titrated, then biotin-CD86-Ig at 0.66 ug/ml as the blocked ligand; neutravidin-AP, ABTS
Procedure: ELISA were performed as described above with modifications. […] After washing, saturating concentrations of neutravidin-AP were added, and incubated for 1 hr at RT. Unbound neutravidin-AP was washed using PBS/1% BSA. The assay was developed using ABTS.

T67 = molecular target: T3, T67; test: sandwich ELISA: antibody coated at 10 ug/ml, CHO supernatant with about 0.5 ug/ml CTLA4-Ig mutant, AP-goat anti-human Fc; blanks on the sheet: Mock 0.174, DME 0.183
T3 construct: one of 11 alanine mutants made by site-directed mutagenesis, used as CHO supernatant; also called CTLA4 point mutant T67; CTLA4-Ig T67A; not shown: human Ig Fc portion (with hinge or linker) of the CTLA4-Ig fusion

E46 [5] = molecular target: T2, E46; test: as above
Procedure: Mutant proteins were transiently expressed on CHO cells and supernatants harvested at 48 hrs. Supernatants containing CTLA4 mutant molecules were quantitated and standardized by ELISA. […] After incubation for 2 hrs at RT, plates were washed and incubated for 1 hr with AP-conjugated goat anti-human Fc specific IgG. The assay was developed as described above.

D62 = molecular target: T4, D62; test: as above
T4 construct: one of 11 alanine mutants made by site-directed mutagenesis, used as CHO supernatant; also called CTLA4 point mutant D62; CTLA4-Ig D62A; not shown: human Ig Fc portion (with hinge or linker) of the CTLA4-Ig fusion

Q82 = molecular target: T5, Q82; test: as above
T5 construct: one of 11 alanine mutants made by site-directed mutagenesis, used as CHO supernatant; also called CTLA4 point mutant Q82; CTLA4-Ig Q82A; not shown: human Ig Fc portion (with hinge or linker) of the CTLA4-Ig fusion

R85 = molecular target: T6, R85; test: as above
T6 construct: one of 11 alanine mutants made by site-directed mutagenesis, used as CHO supernatant; also called CTLA4 point mutant R85; CTLA4-Ig R85A; not shown: human Ig Fc portion (with hinge or linker) of the CTLA4-Ig fusion

D63 = molecular target: T7, D63; test: as above
T7 construct: one of 11 alanine mutants made by site-directed mutagenesis, used as CHO supernatant; also called CTLA4 point mutant D63; CTLA4-Ig D63A; not shown: human Ig Fc portion (with hinge or linker) of the CTLA4-Ig fusion

R38 = molecular target: T8, R38; test: as above
T8 construct: one of 11 alanine mutants made by site-directed mutagenesis, used as CHO supernatant; also called CTLA4 point mutant R38; CTLA4-Ig R38A; not shown: human Ig Fc portion (with hinge or linker) of the CTLA4-Ig fusion

S64 = molecular target: T9, S64; test: as above
T9 construct: one of 11 alanine mutants made by site-directed mutagenesis, used as CHO supernatant; also called CTLA4 point mutant S64; CTLA4-Ig S64A; not shown: human Ig Fc portion (with hinge or linker) of the CTLA4-Ig fusion

I65 = molecular target: T10, I65; test: as above
T10 construct: one of 11 alanine mutants made by site-directed mutagenesis, used as CHO supernatant; also called CTLA4 point mutant I65; CTLA4-Ig I65A; not shown: the human Ig (Fc) part of the CTLA4-Ig fusion and its junction

L61 = molecular target: T11, L61; test: as above
T11 construct: one of 11 alanine mutants made by site-directed mutagenesis, used as CHO supernatant; also called CTLA4 point mutant L61; CTLA4-Ig L61A; not shown: the human Ig (Fc) part of the CTLA4-Ig fusion and its junction

T45 = molecular target: T12, T45; test: as above
T12 construct: one of 11 alanine mutants made by site-directed mutagenesis, used as CHO supernatant; also called CTLA4 point mutant T45; CTLA4-Ig T45A; not shown: the human Ig (Fc) part of the CTLA4-Ig fusion and its junction

human CTLA4-Ig [6] = molecular target: T1, human CTLA4-Ig; test: competition ELISA on plate-coated human CTLA4-Ig (10 ug/ml); cold competitor titrated against biotinylated murine CTLA4-26B; streptavidin-peroxidase, ABTS, O.D. 415 nm
Procedure: (§1) Plates were coated with human CTLA4-Ig (10 ug/ml) overnight, washed the next day and blocked with Superblock (Pierce) for 15 min at room temperature. Plates were washed three times with 1×PBS/0.1% Tween 20 and three times with 1×PBS.
(§2) 100 ul of antibody mixtures was transferred to human CTLA4-Ig coated ELISA plate and rocked for 2 hours at room temperature. Plates were washed as described above and a secondary reagent (streptavidin peroxidase conjugate at 1:1000 dilution) in PBT buffer (1×PBS, 1% BSA, 0.1% Tween 20 was added. Plates were incubated for 1 hr at RT with shaking. Plates were washed as described above and developed for 10 minutes at room temperature with ABTS+H2O2 (100 ul/well) and the reaction was stopped with 2% oxalic acid (100 ul/well).

human CTLA4-Ig [7] = molecular target: T1, human CTLA4-Ig; test: competition ELISA on coated human CTLA4-Ig; reference murine CTLA4-26B
Procedure: as §1, §2

human CTLA4-Ig [8] = molecular target: T1, human CTLA4-Ig; test: calculated; method and form of CTLA4 not stated (Example 8, competition assays); humanized, IgG1 isotype
[9] = molecular target: CTLA4 on CTLA4-expressing CHO cells (human, UniProt P16410 36-223); test: FACS competition on CTLA4-expressing CHO cells; competitor 125 ng FITC-labeled murine anti-CTLA4; unlabeled antibody 2000 ng to 100 ng
Procedure: The starting concentration of the unlabeled competitor was 2000 ng and was diluted 2-fold serially to 100 ng.

human CTLA4-Ig [10] = molecular target: T1, human CTLA4-Ig; test: calculated; method and form of CTLA4 not stated (Example 8, competition assays); humanized, IgG4 isotype
human CTLA4-Ig [11] = molecular target: T1, human CTLA4-Ig; test: calculated; method and form of CTLA4 not stated (Example 8, competition assays); humanized, IgG2m3 isotype

T1 sequence (P16410 other isoform, or with tags, fused parts or gaps limits assumed): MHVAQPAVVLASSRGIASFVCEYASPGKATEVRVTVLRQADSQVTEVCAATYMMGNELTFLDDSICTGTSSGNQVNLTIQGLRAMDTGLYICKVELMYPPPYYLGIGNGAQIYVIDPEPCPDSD
Chain of CTLA4 on CTLA4-expressing CHO cells (P16410 36-223 T147A limits assumed): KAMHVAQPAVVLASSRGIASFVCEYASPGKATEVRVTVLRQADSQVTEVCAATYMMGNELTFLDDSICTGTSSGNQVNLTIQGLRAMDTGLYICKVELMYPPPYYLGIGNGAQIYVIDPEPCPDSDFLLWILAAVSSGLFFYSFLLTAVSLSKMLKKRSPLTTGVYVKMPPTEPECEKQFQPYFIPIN

B1: murine anti-human CTLA4 monoclonal antibody number 26 (antibody, V domains shown)
VH: QVQLKESGPGLVAPSQSLSITCTVSGFSLTSYGVYWVRQPPGKGLEWLGVIWAGGTTNYNSALMSRLSISKDNSKSQVFLKMSSLQTDDTAMYYCARGPPHAMMKRGYAMDYWGQGTSVIVSS
VL: QNVLTQSPAIMPASPGEKVTMTCSATSSITYMSWYQQKSGSSPRLLIYDTSNLASGVPVRFSGSGSGTSYSLTISRMEAEDAATYYCQQWSSYPLTFGAGTKLELK
notes: Mouse IgG1; also called antibody 26; antibody 26B
- Kd (human CTLA4-Ig [1]): ~1.7 nM
- binding result (E46 [2]): no binding
- EC50 (read off the curve) (human CTLA4-Ig [3]): ~50 ng/mL
- IC50 (read off the curve) (human CTLA4-Ig [4]): ~600 ng/mL
- O.D. 450 nm (T67): 0.944
- O.D. 450 nm (E46 [5]): 0.16
- O.D. 450 nm (D62): 0.974
- O.D. 450 nm (Q82): 1.07
- O.D. 450 nm (R85): 0.976
- O.D. 450 nm (D63): 0.979
- O.D. 450 nm (R38): 0.636
- O.D. 450 nm (S64): 1.1
- O.D. 450 nm (I65): 1.17
- O.D. 450 nm (L61): 1.19
- O.D. 450 nm (T45): 0.948
- IC50 (read off the curve) (human CTLA4-Ig [6]): ~3 µg/mL

B2: humanized anti-CTLA4 antibody 26, IgG1 isotype (antibody, V domains shown)
VH: QVQLQESGPGLVKPSQTLSLTCTVSGFSLTSYGVYWVRQPPGKGLEWLGVIWAGGTTNYNSALMSRLTISKDTSKNQVSLKLSSVTAADTAVYYCARGPPHAMMKRGYAMDYWGQGTLVTVSS
VL: DIQMTQSPSSLSASVGDRVTITCSATSSITYMSWYQQKPGKAPKLLIYDTSNLASGVPSRFSGSGSGTDYTLTISSLQPEDFATYYCQQWSSYPLTFGGGTKVEIK
notes: Human IgG1 heavy constant region (pVgamma1 vector) and human kappa constant region (pVkappa vector); also called hCTLA4-26B IgG1; humanized anti-CTLA4 IgG1
- fold difference in affinity against the murine antibody (human CTLA4-Ig [7]): ≤ 10 fold
- Kd (human CTLA4-Ig [8]): ~2 nM
- fold difference in binding affinity against the murine antibody [9]: ≤ 3 fold
- IC50 (read off the curve) (human CTLA4-Ig [6]): ~3 µg/mL

B3: humanized anti-CTLA4 antibody 26, IgG4 isotype (antibody, V domains shown)
VH: B2 VH
VL: B2 VL
notes: Human IgG4 heavy constant region (pVgamma4 vector) and human kappa constant region; also called hCTLA4-26B IgG4; PVkLC+PVg4HC
- fold difference in affinity against the murine antibody (human CTLA4-Ig [7]): ≤ 10 fold
- Kd (human CTLA4-Ig [10]): ~1.1 nM
- IC50 (read off the curve) (human CTLA4-Ig [6]): ~3 µg/mL

B4: humanized anti-CTLA4 antibody 26, IgG2m3 isotype (antibody, V domains shown)
VH: B2 VH
VL: B2 VL
notes: Human IgG2m3 (mutated IgG2) heavy constant region (pVgamma2m3 vector) and human kappa constant region; also called hCTLA4-26B IgG2m3; IgG2 m3 (2 mutated 3)
- fold difference in affinity against the murine antibody (human CTLA4-Ig [7]): ≤ 10 fold
- Kd (human CTLA4-Ig [11]): ~1.2 nM
- IC50 (read off the curve) (human CTLA4-Ig [6]): ~3 µg/mL

From patent US20060165706A1 (GENETICS INSTITUTE, published 2006)
